Assay results reported in patent US20240360242A1 (KISOJI BIOTECHNOLOGY, published 2024).
Numbering of substitutions follows the chain as printed. One block for each binder: values may come before it.

Tests used:
[1] = target: T1, recombinant human TROP2 extracellular domain (aa 1-274) comprising His tag (human, UniProt P09758 27-274); assay: ELISA, coated rh TROP2
T1 construct: Used here for all assays on recombinant human TROP2 (ELISA, immunoblot, SPR, crystal), although only some of them name the catalogue number; also called human recombinant TROP2; recombinant human TROP2 protein; not shown: His tag
T1 sequence: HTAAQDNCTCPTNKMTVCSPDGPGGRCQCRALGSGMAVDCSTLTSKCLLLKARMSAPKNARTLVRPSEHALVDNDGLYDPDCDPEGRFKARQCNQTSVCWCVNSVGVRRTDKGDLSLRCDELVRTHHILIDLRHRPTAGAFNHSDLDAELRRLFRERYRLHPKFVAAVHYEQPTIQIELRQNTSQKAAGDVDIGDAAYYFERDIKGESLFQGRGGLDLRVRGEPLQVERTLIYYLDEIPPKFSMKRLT
Experimental: Human TROP2 recombinant proteins were coated on 96-well ELISA plates at the concentration of 1 μg/mL. Plates were covered with adhesive plate cover and stored at 4° C. overnight. The next day, plates were washed 3× with washing buffer (PBS with 0.1% Tween™ 20). Plates were blocked with 2% fat-free BSA in washing buffer for 1 hour at 37° C. During the incubation time, the TROP2 reference antibodies, as well as the humanized variants, were diluted in the blocking buffer to the indicated concentrations. […] After blocking, the blocking buffer was removed from the wells and 100 μL of anti-TROP2 sdAbs dilutions were transferred to the corresponding wells. Plates were covered with adhesive plates cover and incubated at 37° C. for 1 hour. During the primary antibody incubation, the secondary antibody (goat anti-human IgG, HRP conjugated) was diluted 1 in 5000 with the blocking buffer. Plates were washed 3× with blocking buffer, followed by secondary antibody incubation for another 1 hour at 37° C. After the secondary antibody incubation, plates were washed 3× with washing buffer and added with 100 μL of ELISA chemiluminescent substrate (Thermofisher). The luminescence signal was detected by SpectraMax i3x at […].

[2] = target: T2, recombinant human IGFBP-1 (human, UniProt P08833 26-259); assay: ELISA
T2 construct: also called rhIGFB-1
T2 sequence (looked up): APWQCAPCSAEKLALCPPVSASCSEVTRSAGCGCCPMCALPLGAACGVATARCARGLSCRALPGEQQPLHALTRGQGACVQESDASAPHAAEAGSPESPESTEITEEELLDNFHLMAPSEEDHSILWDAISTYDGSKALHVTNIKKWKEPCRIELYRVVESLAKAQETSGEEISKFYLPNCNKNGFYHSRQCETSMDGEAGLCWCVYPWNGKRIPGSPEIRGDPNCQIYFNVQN

[3] = target: T3, recombinant human EpCAM (human, UniProt P16422 24-265); assay: ELISA
T3 construct: also called rhEpCAM
T3 sequence (looked up): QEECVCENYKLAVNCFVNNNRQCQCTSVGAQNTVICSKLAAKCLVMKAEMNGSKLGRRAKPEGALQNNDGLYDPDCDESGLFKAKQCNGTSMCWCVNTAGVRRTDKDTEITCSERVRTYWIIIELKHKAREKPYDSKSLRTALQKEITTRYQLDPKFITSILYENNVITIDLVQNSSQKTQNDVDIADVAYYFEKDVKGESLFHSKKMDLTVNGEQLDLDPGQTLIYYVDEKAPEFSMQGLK

[4] = target: T4, human TROP2 on cells (human, UniProt P09758 27-323); assay: flow cytometry, 100 nM antibody, transiently transfected HEK cells, APC anti-human Fc
T4 construct: Full human TROP2, either transiently transfected into HEK or CHO cells or endogenous on cancer cell lines; also called HEK-TROP2; CHO-TROP2
T4 sequence: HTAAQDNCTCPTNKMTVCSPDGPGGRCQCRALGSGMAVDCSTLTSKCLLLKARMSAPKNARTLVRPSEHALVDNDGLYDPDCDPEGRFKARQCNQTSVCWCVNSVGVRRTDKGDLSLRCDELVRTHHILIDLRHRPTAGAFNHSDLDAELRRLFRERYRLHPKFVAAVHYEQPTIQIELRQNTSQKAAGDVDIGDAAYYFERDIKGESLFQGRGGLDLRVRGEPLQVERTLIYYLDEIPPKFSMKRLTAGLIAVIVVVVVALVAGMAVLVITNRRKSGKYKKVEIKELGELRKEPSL
Outline: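 HEK parental cells transiently transfected (lipofectamine) with human TROP2 truncation mutants, harvested 24 h later and Fc-blocked 10 min at RT. Anti-TROP2 sdAbs at 100 nM bound 30 min on ice, then detected with APC anti-human Fc (30 min) and 7-AAD added for viability.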

[5] = target: T1, recombinant human TROP2 extracellular …; assay: competitive ELISA on coated recombinant human TROP2, competitor KD004-His, anti-His-HRP
Experimental: The epitope characterization was assessed by competitive ELISA (FIG. 8 and FIG. 9). Microplates were coated with human recombinant TROP2 at 4° C. overnight. After washing, plates were blocked with blocking buffer (PBS+2% BSA), for 1 hour at room temperature. Meanwhile, the dilution for anti-TROP2 VHH sdAbs was prepared with blocking buffer making two different dilutions depending on the tag. For sdAbs with His tag, the antibody was diluted to 28571.4 pM. For sdAbs without tag, antibodies were serially diluted from 2857142.9 pM to 0.29 pM (8 dilutions, 10×). After that, equal volume of the his-tagged sdAbs and serial diluted non-tagged sdAbs were mixed, to make the final concentration of his-tagged sdAbs 14285.7 pM and non-tagged sdAbs from 1428571.4 pM to 0.14 pM. After washing two times, the mixed antibody contents were added into the wells and the plates were incubated for 2 hours at room temperature. The HRP-conjugated anti-6× His was diluted to 1:5000 and added to the wells after washing three times. Any unbound conjugate was removed by washing after 1 hour incubation at room temperature, and the colorimetric reaction was performed by adding the same volume of Supersignal ELISA Pico Luminol/Enhancer and SuperSignal ELISA Pico Stable Peroxide Solution and detected on SpectraMax i3x Microplate Reader. Positive and negative controls were included in each plate.

[6] = target: T1, recombinant human TROP2 extracellular …; assay: ELISA, coated rh TROP2, normalized to KD005

B1: KD002 (antibody, human IgG1, V domains shown)
VH: QVQLQESGGGMVQVGGSLRLSCAASGFPFSSADMSWVRQAPGKGPEWVSYINADGSKTYYPDSVKGRFTISRDNAKNTLYLLMNNLKPEDTALYRCARAKLTDTHYVEDYWGQGTQVTVSS
notes: also called anti-TROP2 sdAb KD002
- EC50 [1]: 0.07 nM

B2: KD007 (antibody, human IgG1, V domains shown)
VH: QVQLQESGGGLVQPGGSLRLSCAASGFAFSFYAMAWYRQAPGKQRDMVATITAYGNTNYADSVKGRFTTSRDNAKNTVYLQMNSLKPEDTAVYVCNANLPSASHNYWGQGTQVTVSS
notes: also called anti-TROP2 sdAb KD007
- binding result [2]: no binding
- binding result [3]: no binding
- binding result [4]: binds

The next lines start with the values.

- IC50 (read off the curve) [5]: ~60 nM
B3: KD004 (antibody, human IgG1, V domains shown)
VH: QVQLQESGGGLVQPGRSLRLSCAASGFTFSGSDMSWVRQAPGKGPEWVSYITGSGTTYYPDSVKGRFTTSRDNAKNMLYLQMNSLKPDDTALYRCAKARLTDSHYVEDAWGQGTQVTVSS
notes: also called anti-TROP2 sdAb KD004

- EC50 relative to KD005 [6]: 1 ratio to KD005
B4: KD005 (antibody, human IgG1, V domains shown)
VH: B3 VH with Q13E, P14A, R16G, G53S, S54G, T69I, M77T, A98S
notes: also called anti-TROP2 sdAb KD005
